Laboratory results as given in PMC5701185, “Evidence for PII with NAGK interaction that regulates Arg synthesis in the microalga Myrmecia incisa in response to nitrogen starvation” (Scientific Reports, 2017).

Key:
[1] = target: recombinant MiNAGK fused to the His-tag (pET-NAGK) (Myrmecia incisa)
MiPII with MiNAGK [2] = target: T1, MiPII with MiNAGK (Lobosphaera incisa, UniProt A0A2R4H197); experiment: hydroxamate-Fe([…]+) NAGK assay, […] nm; assay type: biochemical; settings: read-out: half-maximal effective concentration
T1 construct: gene glnB; same proteins as P2; effector site on PII (209-aa precursor, 52-aa signal peptide removed, N-terminal His-tag kept, 21-kD band); read-out NAGK activity; with Acetylglutamate kinase, chloroplastic

MiPII with MiNAGK [3] = target: T1, MiPII with MiNAGK; experiment: hydroxamate-Fe([…]+) NAGK assay, […] nm; assay type: biochemical; settings: read-out: % inhibition at 1 mM
[4] = target: recombinant MiPII fused to the His-tag (pET-PII) (Myrmecia incisa); experiment: co-IP; purified recombinant MiPII (200 ug) and MiNAGK (400 ug) in 1 mL 50 mM Tris-HCl pH 7.5, 100 mM KCl, with ATP (3 mM) and Mg2+ (6 mM), with or without 2-OG (5 mM); 1 h at room temperature; precipitated with rabbit anti-MiPII polyclonal antibody and protein A Sepharose; SDS-PAGE, Coomassie staining, band intensity by ImageJ
recombinant MiPII fused to the His-tag (pET-PII) (Myrmecia incisa), sequence (main, as listed by the source): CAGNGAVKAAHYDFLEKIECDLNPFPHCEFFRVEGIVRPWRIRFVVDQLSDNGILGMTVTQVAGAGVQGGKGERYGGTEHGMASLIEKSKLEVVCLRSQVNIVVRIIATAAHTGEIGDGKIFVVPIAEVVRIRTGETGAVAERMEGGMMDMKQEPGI

T1 sequence (A0A2R4H194 60-359 partner): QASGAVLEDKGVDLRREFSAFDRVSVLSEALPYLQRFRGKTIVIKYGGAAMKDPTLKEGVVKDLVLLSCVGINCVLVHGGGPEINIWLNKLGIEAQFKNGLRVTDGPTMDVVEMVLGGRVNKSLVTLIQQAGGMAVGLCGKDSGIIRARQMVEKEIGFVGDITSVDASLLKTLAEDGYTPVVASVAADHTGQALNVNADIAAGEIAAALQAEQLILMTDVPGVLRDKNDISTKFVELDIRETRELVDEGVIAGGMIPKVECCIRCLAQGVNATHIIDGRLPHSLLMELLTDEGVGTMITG
recombinant MiNAGK fused to the His-tag (pET-NAGK) (Myrmecia incisa), sequence (main, as listed by the source): as the sequence (A0A2R4H194 60-359 partner) above

For “recombinant MiPII fused to the His-tag (pET-PII) (natural protein)”, the specific activity of recombinant MiNAGK with MiPII (10 ug) and Gln (10 mM), 2-OG from 0 to 4 mM; value at 1 mM 2-OG [1] was 30%.

Work on `NC(=O)CC[C@H](N)C(=O)O` [Gln] yielded an EC50 (MiPII with MiNAGK [2]) of ~3 mM.

`O=C(O)CCC(=O)C(=O)O` [2-OG] showed an inhibition at 1000 µM (MiPII with MiNAGK [3]) of ~30%.

In the case of “recombinant MiNAGK fused to the His-tag (pET-NAGK) (enzyme)”, the intensity of the stained MiNAGK band in the precipitate with 2-OG relative to without 2-OG [4] is reported as 0.65 times.
